B1: ESR2 (parent)
chain: KSCQACRLRKCYEVGMVKCGSRRE
B2: MLH1 (parent)
chain: YAHQMVRTDSREQKLDAFLQPLSK

Variants of: B1
Assay: protein stability index of a GFP-peptide fusion (GPS, HEK-293T) (PSI 1-6); higher = more stable
Settings: c terminus: a fixed tail appended
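Also: lentivirally expressed fusions sorted by FACS into six bins by GFP to DsRed ratio, PSI derived from sequencing read proportions per bin multiplied by bin number.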

Protein stability index, by site and new letter:
V17: M 2.37 | N 3.53 | P 1.82 | Q 2.1 | R 1.82 | S 2.16 | T 1.98 | W 1.86 | Y 1.78
K18: A 1.89 | C 2.16 | D 2.2 | E 2.09 | F 1.51 | G 1.8 | H 2.33 | I 1.49 | L 1.73 | M 1.67 | N 2.39 | P 1.72 | Q 1.7 | R 2.31 | S 2.85 | T 1.82 | V 2.79 | W 1.35 | Y 1.49
C19: A 2.18 | D 2.51 | E 2.43 | F 1.86 | G 2.11 | H 1.94 | I 1.4 | K 1.76 | L 1.89 | M 1.9 | N 2.04 | P 2.28 | Q 1.53 | R 2.52 | S 1.61 | T 2.81 | V 1.89 | W 3.71 | Y 1.43
G20: A 1.91 | C 1.95 | D 1.87 | E 2.41 | F 2.01 | H 2.75 | I 2.16 | K 2.41 | L 1.73 | M 1.73 | N 2.12 | P 1.84 | Q 1.73 | R 2.49 | S 1.81 | T 2.19 | V 1.87 | W 1.48 | Y 2.15
S21: A 2.24 | C 3.46 | D 1.75 | E 2.25 | F 1.5 | G 1.89 | H 2.65 | I 1.69 | K 2.39 | L 2.44 | M 2.13 | N 2.57 | P 2.29 | Q 1.32 | R 2.09 | T 2.31 | V 1.56 | W 1.5 | Y 1.76
R22: A 1.88 | C 3.45 | D 3.02 | E 2.98 | F 1.41 | G 1.99 | H 1.97 | I 1.83 | K 2.35 | L 1.33 | M 2.21 | N 1.91 | P 2.33 | Q 2.04 | S 1.91 | T 1.92 | V 1.97 | W 2.05 | Y 1.66
R23: A 1.61 | C 2.39 | D 2.48 | E 2.33 | F 2.51 | G 1.79 | H 1.96 | I 2.43 | K 1.96 | L 1.58 | M 1.98 | N 2.17 | P 2.2 | Q 2.21 | S 2.25 | T 1.85 | V 2.41 | W 1.67 | Y 2.09
E24: A 2.44 | C 2.28 | D 2.28 | F 1.91 | G 2.92 | H 1.68 | I 1.73 | K 2.45 | L 2.07 | M 1.67 | N 2.02 | P 2.74 | Q 1.88 | R 2.24 | S 1.79 | T 2.12 | V 2.19 | W 2.33 | Y 1.42

Variants of: B2
Assay: as above
Settings: c terminus: a fixed tail appended

Protein stability index, by site and new letter:
Y1: A 3.48 | C 1.59 | D 4.12 | F 2.12 | G 3.87 | H 3.6 | I 3.38 | K 3.88 | L 3.16 | M 3.11 | N 2.95 | Q 3.97 | R 3.12 | S 3.88 | T 3.87 | W 2.66
A2: C 2.09 | D 4.03 | G 3.19 | H 1.8 | L 2.84 | M 3.12 | N 3.54 | Q 2.74 | R 3.12 | S 2.82 | T 2.55 | V 1.93 | Y 2.39
H3: C 2.01 | D 3.05 | F 2.19 | G 2.15 | I 2.5 | K 2.75 | L 2.19 | N 3.13 | Y 2
Q4: A 2.1 | C 2.07 | F 2 | G 2 | H 2.04 | I 2.16 | K 2 | L 2.37 | M 2.51 | R 1.93 | S 2.42 | T 2.16 | V 2.37 | W 2.7
M5: D 3.34 | E 3.31 | F 2.34 | G 2.63 | H 2.53 | K 2.98 | L 2.49 | N 3.16 | P 2.57 | R 2.59 | S 3.02 | Y 2.43
V6: D 3.03 | F 2.19 | I 2.43 | K 2.53 | L 2.48 | M 2.29 | Q 2.71 | S 2.97 | T 2.7 | Y 2.42
R7: C 1.59 | E 3.17 | F 2.18 | G 1.96 | I 2.57 | K 2.74 | N 2.98 | P 3.06 | V 2.12 | W 2.32
T8: C 2.27 | D 2.78 | F 2.12 | G 2.69 | H 2.04 | I 2.49 | L 2.43 | P 2.19 | S 2.71 | W 1.83
D9: A 2.18 | C 2.46 | E 2.95 | H 2.75 | I 2.15 | L 2.15 | M 2.49 | N 2.53 | P 2.29 | Q 2.7 | R 2.54 | S 2.54 | T 1.99 | V 1.89 | W 1.8 | Y 1.98
S10: A 2.97 | E 2.79 | G 2.71 | I 3 | L 1.72 | M 2.53 | N 2.43 | Q 2.78 | R 2.51 | T 2.39 | W 1.66
R11: C 2.59 | F 2.51 | G 2.78 | I 2.1 | L 1.95 | P 2.46 | Q 2.84 | T 3.34 | W 1.33
E12: A 2.37 | C 2.19 | D 3.18 | F 1.74 | G 2.2 | H 2.34 | I 1.82 | L 2 | M 1.87 | N 2.37 | P 2.32 | R 2.53 | S 2.32 | T 2.29 | V 2.42 | W 1.6 | Y 1.98
Q13: C 1.54 | F 1.72 | G 2.32 | H 2.04 | I 1.94 | M 2.06 | N 2.48 | R 2.78 | T 2.7 | W 2.18
K14: A 2.84 | C 2.08 | D 2.46 | E 2.78 | F 2 | I 2.43 | L 1.54 | N 2.48 | V 2.57 | W 1.86 | Y 1.83
L15: D 3.25 | E 3.83 | F 2.2 | G 3.28 | H 2.57 | I 2.17 | N 3.28 | Q 3.77 | W 2.37
D16: A 2.69 | C 1.99 | G 2.08 | I 2.16 | K 2.63 | L 1.62 | N 1.91 | Q 2.46 | S 2.1 | V 1.66 | W 3.5 | Y 1.57
A17: C 2.15 | D 3 | E 2.98

Source: the supplement of paper PMC10567573
